Patent US10227575B2, “Multi-domain enzymes having cutinase activity, compositions comprising same and uses thereof” (OZYMES, priority 2015, dated 2019)
Values joined by “and” are separate entries in the source; they are usually repeats but may differ in a detail not shown here. Equal entries are not always repeated. Where two headings read alike, the source gives them in different places. Marks after values point to notes of the source that are not given here.

How the values were obtained:
[1] = Enzymatic activity in the presence of organic solvents; type: biochemical; conditions: buffer only = 100%
Method: Enzyme activity in various organic solvents was studied over a concentration range of 1-30% at room temperature. pNP-palmitate was completely dissolved in 2-propanol (8 mM) and then added to 50 mM Tris/HCl buffer pH 8.0 containing up to 30% organic solvent to give a final substrate concentration of 0.8 mM. The reaction was started by addition of enzyme and the formation of pNP was assayed as described above in Example 20.1.

[2] = Specific activity of purified enzymes (standard esterase assay); type: biochemical
Summary of the method: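 Purified enzymes tested on pNP-esters, including pNP-palmitate, at 0.8 mM final in 50 mM Tris/HCl pH 8.0 (substrate predissolved in 2-propanol). p-Nitrophenol release followed at 410 nm (ε 15 mM^−1 cm^−1); 1 U = 1 μmol pNP/min, specific activity given as U/mg protein.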

[3] = Stability in the presence of hydrogen peroxide; type: physicochemical
Summary of the method: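 Purified cutinases held at room temperature with 0, 30, 100, 300, 1500 or 3000 ppm H2O2; residual esterase activity assayed after 1, 2, 3 and 7 days. Activity read as pNP release at 410 nm from pNP-esters (0.8 mM final) in 50 mM Tris/HCl pH 8.0; U = 1 μmol pNP/min, ε 15 mM^−1 cm^−1.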

[4] = Enzyme substrate profiles, esterase assays; type: biochemical; conditions: highest activity towards a specific substrate set to 100%
Summary of the method: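 Hydrolysis of pNP-ester substrates, final 0.8 mM (from 8 mM 2-propanol stock), in 50 mM Tris/HCl pH 8.0, followed as pNP release at 410 nm (ε 15 mM^−1 cm^−1). One U = 1 μmol pNP/min; specific activity as U/mg protein.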

[5] = pH dependence of enzymes; type: biochemical; conditions: for Relative activity (%): highest activity = 100%
Method: The influence of different pH values (from 5.5 to 11) on the activities of the purified enzymes was examined in three buffer systems (sodium acetate, sodium phosphate, and Tris-HCl) at room temperature using pNP-palmitate (see esterase assay in Example 20.1) as a substrate at a final substrate concentration of 0.8 mM.

[6] = Activity of crude culture supernatants from bioreactor; type: biochemical; conditions: pNP-dodecanoate
[7] = type: biochemical, Petromyces albertensis; conditions: for Residual ochratoxin A (%): 5 ppm Ochratoxin A, 37° C., relative to incubation without enzyme
[8] = Temperature optimum; type: biochemical; conditions: for Relative activity at temperature: highest activity set to 100%
Method: For estimation of the temperature optimum, buffer containing pNP-palmitate (see esterase assay in Example 20.1) was pre-incubated to reach the desired temperature, enzyme was then added, and the formation of pNP was assayed. For this experiment, Tris/HCl buffer was replaced with sodium phosphate buffer (50 mM, pH 8.0) to avoid a pH shift at the different temperatures.

B1: Cf-TP: chimeric variant: catalytic and polymer binding domains of CfCUT with T/P-rich linker domain of KrCUT, SEQ ID NO: 29 (protein)
chain: APACPDVELVFARGTGEAAGLGIVGRPLERALAAELPGRTVVATAVDYAASSSQASAGPGSGDMVAKVRSRAAACPGTQFVLGGYSQGATVTDLALGIRTGVTAGTALPEDLAARVAAVVVYGNPLGLTRRTIAQAAPAFATRTVEYCNAGDPVCEPGGGRFTAHITYATNGTVLEGARFAAARVTAAGTPTTPTPTPTPTPVPTTCVTASSLQHVRDGRAYPLWMRTYARGSGDPLGVLSSRTVVSLQADGTDTWRKVAAC
modifications: YebF carrier; Cf-TP variant
Relative enzymatic activity (%) ([1]; 2-Propanol 5% (v/v)): 93 ± 1% | Relative enzymatic activity (%) ([1]; 2-Propanol 10% (v/v)): 92 ± 2% | Relative enzymatic activity (%) ([1]; Acetone 1% (v/v)): 103 ± 12% | Relative enzymatic activity (%) ([1]; Acetone 5% (v/v)): 112 ± 10% | Relative enzymatic activity (%) ([1]; Acetone 10% (v/v)): 109 ± 6% | Relative enzymatic activity (%) ([1]; Dimethyl sulfoxide (DMSO) 10% (v/v)): 150 ± 14% | Relative enzymatic activity (%) ([1]; Dimethyl sulfoxide (DMSO) 20% (v/v)): 146 ± 23% | Relative enzymatic activity (%) ([1]; Dimethyl sulfoxide (DMSO) 30% (v/v)): 129 ± 18% | Relative enzymatic activity (%) ([1]; Dimethylformamide (DMF) 5% (v/v)): 134 ± 10% | Relative enzymatic activity (%) ([1]; Methanol 10% (v/v)): 121 ± 14% | Relative enzymatic activity (%) ([1]; Methanol 20% (v/v)): 94 ± 1% | Enzymatic activity of the purified variant ([2]; pNP-palmitate): 30 ± 2 U/mg | Spec. Act. (U/mg) ([2]; towards pNP-palmitate (standard assay)): 30 ± 2 U/mg | Relative activity (%) after exposure to hydrogen peroxide ([3]; H2O2 30 ppm, Day 0): 97 ± 1% | Relative activity (%) after exposure to hydrogen peroxide ([3]; H2O2 30 ppm, Day 1): 89 ± 4% | Relative activity (%) after exposure to hydrogen peroxide ([3]; H2O2 30 ppm, Day 2): 78 ± 3% | Relative activity (%) after exposure to hydrogen peroxide ([3]; H2O2 30 ppm, Day 3): 86 ± 2% | Relative activity (%) after exposure to hydrogen peroxide ([3]; H2O2 30 ppm, Day 7): 65 ± 7% | Relative activity (%) after exposure to hydrogen peroxide ([3]; H2O2 100 ppm, Day 0): 98 ± 6% | Relative activity (%) after exposure to hydrogen peroxide ([3]; H2O2 100 ppm, Day 1): 91 ± 3% | Relative activity (%) after exposure to hydrogen peroxide ([3]; H2O2 100 ppm, Day 2): 89 ± 7% | Relative activity (%) after exposure to hydrogen peroxide ([3]; H2O2 100 ppm, Day 3): 94 ± 7% | Relative activity (%) after exposure to hydrogen peroxide ([3]; H2O2 100 ppm, Day 7): 74 ± 6% | Relative activity (%) after exposure to hydrogen peroxide ([3]; H2O2 300 ppm, Day 0): 95 ± 6% | Relative activity (%) after exposure to hydrogen peroxide ([3]; H2O2 300 ppm, Day 1): 88 ± 3% | Relative activity (%) after exposure to hydrogen peroxide ([3]; H2O2 300 ppm, Day 2): 85 ± 12% | Relative activity (%) after exposure to hydrogen peroxide ([3]; H2O2 300 ppm, Day 3): 98 ± 3% | Relative activity (%) after exposure to hydrogen peroxide ([3]; H2O2 300 ppm, Day 7): 77 ± 5% | Relative activity (%) after exposure to hydrogen peroxide ([3]; H2O2 1,500 ppm, Day 0): 95 ± 9% | Relative activity (%) after exposure to hydrogen peroxide ([3]; H2O2 1,500 ppm, Day 1): 89 ± 3% | Relative activity (%) after exposure to hydrogen peroxide ([3]; H2O2 1,500 ppm, Day 2): 88 ± 6% | Relative activity (%) after exposure to hydrogen peroxide ([3]; H2O2 1,500 ppm, Day 3): 87 ± 4% | Relative activity (%) after exposure to hydrogen peroxide ([3]; H2O2 1,500 ppm, Day 7): 68 ± 7% | Relative activity (%) after exposure to hydrogen peroxide ([3]; H2O2 3,000 ppm, Day 0): 80% and 80 ± 2% | Relative activity (%) after exposure to hydrogen peroxide ([3]; H2O2 3,000 ppm, Day 1): 74 ± 5% | Relative activity (%) after exposure to hydrogen peroxide ([3]; H2O2 3,000 ppm, Day 2): 77 ± 2% | Relative activity (%) after exposure to hydrogen peroxide ([3]; H2O2 3,000 ppm, Day 3): 78 ± 5% | Relative activity (%) after exposure to hydrogen peroxide ([3]; H2O2 3,000 ppm, Day 7): 57% and 57 ± 5% | Relative activity, pNP-acetate (C2) [4]: 5% | Relative activity, pNP-butyrate (C4) [4]: 80 ± 3% | Relative activity, pNP-caprylate (C8) [4]: 33 ± 1% | Relative activity, pNP-decanoate (C10) [4]: 66 ± 8% | Relative activity, pNP-myristate (C14) [4]: 40 ± 4% | Relative activity, pNP-palmitate (C16) [4]: 100* % | pH opt. [5]: 9.5 | Relative activity (%) ([5]; pH 6.5, sodium phosphate buffer): 12 ± 1% | Relative activity (%) ([5]; pH 7.0, sodium phosphate buffer): 22 ± 1% | Relative activity (%) ([5]; pH 7.5, sodium phosphate buffer): 36 ± 1% | Relative activity (%) ([5]; pH 8.0, Tris/HCl): 65 ± 7% | Relative activity (%) ([5]; pH 8.5, Tris/HCl): 88 ± 8% | Relative activity (%) ([5]; pH 9.0, Tris/HCl): 95 ± 3% | Relative activity (%) ([5]; pH 9.5, Tris/HCl): 100* % | Relative activity (%) ([5]; pH 10, Tris/HCl): 35 ± 4% | activity of crude culture supernatant [6]: 0.6 U/mL | Residual ochratoxin A (%) ([7]; 1 h): 5% | Residual ochratoxin A (%) ([7]; 4 h): 0% | Residual ochratoxin A (%) ([7]; 24 h): 0% | Ochratoxin A degraded ([7]; after 4 hours): 100% | Ochratoxin A Degradation per U and h ([7]; per 1 U of enzyme (pNP standard test) and hour at 37° C.): 98 µmol | Temp. opt. (° C.) [8]: 35 °C | Relative activity at temperature ([8]; 20 ° C.): 54 ± 5% | Relative activity at temperature ([8]; 25 ° C.): 84 ± 9% | Relative activity at temperature ([8]; 30 ° C.): 95 ± 5% | Relative activity at temperature ([8]; 35 ° C.): 100* % | Relative activity at temperature ([8]; 40 ° C.): 89 ± 6% | Relative activity at temperature ([8]; 45 ° C.): 72 ± 7% | Relative activity at temperature ([8]; 50 ° C.): 37 ± 6% | Relative activity at temperature ([8]; 55 ° C.): 9 ± 1%
